Measurements as given in paper PMC4428900.
Read-outs that look alike come from different tables or passages of the source.

Columns and labels:
[1] = target: NS4B (genotype 1b) fused to mCherry (Hepatitis C virus genotype 1b) (UniProt Q9WMX2); assay: FRET or BRET
[2] = target: NS4B (genotype 1b) fused to GFP (Hepatitis C virus genotype 1b) (UniProt Q9WMX2); assay: FRET or BRET
[3] = target: NS4B (genotype 2a) W204A fused to mCherry (Hepatitis C virus genotype 2a); assay: FRET or BRET
[4] = target: NS4B (genotype 2a) fused to mCherry (Hepatitis C virus genotype 2a) (UniProt Q99IB8); assay: FRET or BRET
[5] = target: NS4B (genotype 2a) fused to mCherry (Hepatitis C virus genotype 2a) (UniProt Q99IB8); assay: FRET or BRET; remark: listed apart in the source
[6] = target: pBIND-NS4B C-terminal domain W204A (Hepatitis C virus genotype 2a); assay: two-hybrid

“NS4B (genotype 1b) fused to GFP (from UniProt Q9WMX2 1712-1972) (natural protein)” was tested, and the mean FRET efficiency (EF) [1] was 6.6.

With “NS5A (genotype 1b) fused to mCherry (from UniProt Q9WMX2 1973-2419) (natural protein)” the mean FRET efficiency (EF) [2] was 6.

“NS5A (genotype 2a) fused to GFP (from UniProt Q99IB8 1977-2442) (natural protein)” gave a mean FRET efficiency (Ef) [3] of 1.3, a mean FRET efficiency (Ef) [4] of 6.5 and a mean FRET efficiency (EF) [1] of 6.5. It also gave a mean FRET efficiency (EF) [5] of 5.5 and a mean FRET efficiency (Ef) [5] of 9.6.

In the case of “pACT-NS5A (full length NS5A of genotype 2a fused to VP16) (from UniProt Q99IB8 1977-2442) (natural protein)”, the reduction in luciferase activity compared to the wild type [6] is reported as 30%.

“NS5A (genotype 2a) a.a. 1–352 fused to GFP (domain or fragment)” gave a mean FRET efficiency (Ef) [5] of 9.3.
